B1: FAM107A (parent)
chain: HRRGLGVDSKPELQRVLEHRRRNQ
B2: SMG5 (parent)
chain: QEKLQVLMAEGLLPAVKVFLDWLR

Variants of: B1
Test: protein stability index of a GFP-peptide fusion (GPS, HEK-293T) (PSI 1-6); higher = more stable
Settings: c terminus: a fixed tail appended
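Further: lentivirally expressed fusions sorted by FACS into six bins by GFP to DsRed ratio, PSI derived from sequencing read proportions per bin multiplied by bin number.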

Protein stability index: each site, then its substitutions
L5: R 5.2 | F 4.13 | M 4.52 | Q 5.16 | A 4 | P 4.16 | V 3.46 | K 4.04 | I 3.15 | T 4.82 | E 4.34 | H 4.21 | Y 4.66
V16: K 4.47 | L 4.03 | G 5.55 | Y 4.46 | H 3.96 | C 4.44 | T 3.71 | P 4.89 | S 4.01 | N 4.76 | F 4.23 | R 4.67 | D 4.25 | Q 5.45 | A 4.83 | I 3.63
S9: E 4.39 | F 3.52 | Y 4.16 | L 4.15 | P 4.38 | W 3.55 | R 4.8 | G 4.41 | H 4.46 | D 4.67 | I 4.66 | A 2.99 | M 4.14 | V 3.98 | K 4.76
G4: N 4.42 | V 4.87 | E 5.08 | R 4.2 | H 4.3 | T 3.35 | Q 4.33 | K 5.72 | I 4.21 | P 4.8 | D 4.49 | C 4.02 | Y 4.32 | S 3.63 | A 3.35 | F 4.72
R15: Q 3.56 | H 4.25 | M 4.06 | S 4.43 | P 4.89 | N 4.29 | F 4.19 | W 3.21 | A 4.26 | T 4.34 | K 3.31 | G 5.35 | E 4.17 | D 4.26 | Y 4.79
R2: F 4.86 | D 5.11 | Y 5.39 | K 3.05 | Q 4.58 | W 3.71 | H 4.05 | L 3.91 | P 4.96 | N 4.2 | T 4.95 | V 5 | E 4.7 | I 3.4 | G 4.84 | C 4.78
H1: E 4.92 | C 3.42 | K 4.53 | R 4.55 | N 4.5 | A 3.52 | T 4.04 | P 2 | W 3.11 | S 4.16 | V 4.43 | L 4.8 | Y 4.12
G6: T 2.78 | K 2.56 | Q 3.18 | Y 3.5 | A 1.82 | H 3.22 | F 3.06 | P 4.63 | M 4.25 | I 3.68 | D 2.51
E12: R 2.99 | W 3.5 | A 4.3 | K 4.18 | T 2.98 | D 2.18 | C 4.11 | L 4.02
P11: D 4.29 | G 4.55 | W 3.25 | Q 3.73 | I 3.42 | T 3.51 | H 4.35 | K 3.82 | Y 2.59 | A 4.05 | C 4.13 | V 3.95 | M 3.99 | R 4.13
R21: S 3.37 | T 3.48 | N 4.74 | M 4.09 | L 3.77 | K 4.15 | E 5.04 | I 3.86 | D 4.11 | W 3.64 | Q 4.38 | Y 3.98 | C 3.39 | H 4.38
Q14: V 3.86 | Y 3.15 | F 3.62 | I 2.75 | H 3.48 | D 4.07 | C 4.03 | G 4.8 | S 3.71 | K 3.39 | P 4 | M 2.81 | N 4.5 | T 4.28
D8: H 3.74 | P 2.54 | F 2.23 | M 3.18 | T 4.41 | I 3.74 | E 4.59 | A 2.92 | K 3.79 | N 3 | V 4.07 | G 3.42 | S 2.41 | Y 2.41 | C 3.08 | R 4.26 | Q 3.34
R20: D 3.98 | C 4.53 | A 3.36 | W 3.47 | S 4.27 | L 3.31 | Q 3.96 | I 3.78 | F 2.69 | P 4.59 | E 4.33 | T 4.42 | G 3.95 | K 4.79 | M 4.04 | N 4.04 | Y 3.41
R3: I 4.29 | A 4.9 | M 3.9 | S 4.91 | E 4.2 | H 4.95 | G 5.11 | W 4.22 | F 3.9 | T 4.92 | V 4.74 | K 4.52 | P 4.55 | N 4.25 | C 3.97 | Q 3.65 | L 4.14
R22: A 4.63 | N 3.48 | F 3.43 | C 3.6 | P 4.36 | L 3.4 | H 3.55 | D 4.62 | K 4.46 | G 3.64
L17: C 5.08 | E 4.21 | I 4.76 | V 4.17 | G 5.21 | H 4.34 | N 5.25 | W 3.71 | D 5.01 | Y 4.56 | Q 4.99 | P 4.7 | S 4.79 | M 4.14 | A 4.92 | K 4.53
H19: Y 3.72 | N 4.93 | Q 3.67 | W 1.53 | P 4.29 | L 4.45 | S 4.82 | K 4.29 | C 2.01 | G 4.68 | M 4.13 | R 4.54 | D 5.29 | I 4.04
K10: A 4.56 | G 4.5 | Q 4.92 | M 4.27 | H 4.18 | T 4.38 | C 3.82 | L 2.36 | S 5.01 | N 4.48 | E 4.55 | W 2.6 | D 4.89
V7: M 3.62 | K 4.33 | F 3.42 | S 4.88 | D 4.93 | R 4.39 | A 3.74 | Y 4.23 | C 3.07 | H 2.61 | T 4.79 | Q 4.95
L13: H 4.93 | K 4.97 | E 5.77 | T 5.23 | G 4.94 | R 4.14 | F 4.75 | C 3.67 | N 5.21 | A 4.31 | M 4 | V 3.94 | Q 5.33 | I 4.71 | D 5.59 | S 4.93 | Y 4.95
E18: Q 2.67 | S 2.71 | P 5.02 | G 3.58 | L 3.98 | D 3.29 | M 2.48 | R 4.12 | Y 4.17 | A 3.57 | T 3.58 | F 3.93 | N 4.02

Variants of: B2
Test: as above
Settings: c terminus: a fixed tail appended

Protein stability index: each site, then its substitutions
R24: H 2.6 | T 1.88 | F 2.23 | Y 1.91 | A 1.21 | D 2 | L 2.96 | V 1.67 | N 1.92 | I 1.93 | G 1.43 | W 1.83 | M 1.89 | S 2.62 | C 1.59 | P 3.34 | K 2.45 | E 2.5 | Q 1.75
L23: V 1.67 | Y 1.97 | W 1.7 | T 1.19

Reference: the supplement of paper PMC10567573
